# Biological target: the molecule itself
# Assay: crystal structure
protein,measurement,value
"AACC (C136A/C141A) double mutant of the Tn501 MerA (mercuric reductase) catalytic core (domain or fragment, Pseudomonas aeruginosa (Tn501)) EPPVQVAVIGSGGAAMAAALKAVEQGAQVTLIERGTIGGTAVNVGAVPSKIMIRAAHIAHLRRESPFDGGIAATVPTIDRSKLLAQQQARVDELRHAKYEGILGGNPAITVVHGEARFKDDQSLTVRLNEGGERVVMFDRCLVATGASPAVPPIPGLKESPYWTSTEALASDTIPERLAVIGSSVVALELAQAFARLGSKVTVLARNTLFFREDPAIGEAVTAAFRAEGIEVLEHTQASQVAHMDGEFVLTTTHGELRADKLLVATGRTPNTRSLALDAAGVTVNAQGAIVIDQGMRTSNPNIYAAGDCTDQPQFVYVAAAAGTRAAINMTGGDAALDLTAMPAVVFTDPQVATVGYSEAEAHHDGIETDSRTLTLDNVPRALANFDTRGFIKLVIEEGSHRLIGVQAVAPEAGELIQTAALAIRNRMTVQELADQLFPYLTMVEGLKLAAQTFNKDVKQLSCCAG",binding result,binds

# — PMC4245977 (Biochemistry, 2014)
